Values belong to the binder of their own block, whether it stands above or below them.
Molecular target: human CYP2D6 (human) (UniProt P10635)
UniProt P10635, sequence (P10635 whole entry): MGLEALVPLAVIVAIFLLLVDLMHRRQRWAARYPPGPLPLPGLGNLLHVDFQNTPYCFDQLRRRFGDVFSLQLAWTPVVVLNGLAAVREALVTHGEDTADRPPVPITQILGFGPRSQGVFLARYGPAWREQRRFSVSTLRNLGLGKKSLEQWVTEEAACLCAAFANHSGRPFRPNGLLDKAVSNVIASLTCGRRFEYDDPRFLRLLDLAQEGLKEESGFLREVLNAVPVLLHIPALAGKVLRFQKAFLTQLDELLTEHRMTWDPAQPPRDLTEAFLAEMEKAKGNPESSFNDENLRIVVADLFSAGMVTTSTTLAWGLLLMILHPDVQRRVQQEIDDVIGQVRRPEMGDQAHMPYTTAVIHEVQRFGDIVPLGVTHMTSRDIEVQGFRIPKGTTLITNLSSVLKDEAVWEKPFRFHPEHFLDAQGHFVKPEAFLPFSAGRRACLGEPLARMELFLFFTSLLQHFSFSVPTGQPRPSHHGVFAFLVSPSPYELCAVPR

production of 4-hydroxypropranolol from propranolol by CYP2D6 in co-expressing enzyme bags (SAN307), against the CYP2D6 control strain SAN300: 2.1 fold
production of 5-hydroxypropranolol from propranolol by CYP2D6 in co-expressing enzyme bags (SAN307), against the CYP2D6 control strain SAN300: 4.8 fold
B1: human UGT1A8 (enzyme)
chain: GKLLVVPMDGSHWFTMQSVVEKLILRGHEVVVVMPEVSWQLGKSLNCTVKTYSTSYTLEDLDREFMDFADAQWKAQVRSLFSLFLSSSNGFFNLFFSHCRSLFNDRKLVEYLKESSFDAVFLDPFDACGLIVAKYFSLPSVVFARGIACHYLEEGAQCPAPLSYVPRILLGFSDAMTFKERVRNHIMHLEEHLFCQYFSKNALEIASEILQTPVTAYDLYSHTSIWLLRTDFVLDYPKPVMPNMIFIGGINCHQGKPLPMEFEAYINASGEHGIVVFSLGSMVSEIPEKKAMAIADALGKIPQTVLWRYTGTRPSNLANNTILVKWLPQNDLLGHPMTRAFITHAGSHGVYESICNGVPMVMMPLFGDQMDNAKRMETKGAGVTLNVLEMTSEDLENALKAVINDKSYKENIMRLSSLHKDRPVEPLDLAVFWVEFVMRHKGAPHLRPAAHDLTWYQYHSLDVIGFLLAVVLTVAFITFKCCAYGYRKCLGKKGRVKKAHKSKTH

production of 4-hydroxypropranolol from propranolol by CYP2D6 in co-expressing enzyme bags (SAN306), against the CYP2D6 control strain SAN300: 3.3 fold
production of 5-hydroxypropranolol from propranolol by CYP2D6 in co-expressing enzyme bags (SAN306), against the CYP2D6 control strain SAN300: 8.4 fold
B2: human UGT1A7 (enzyme)
chain: GKLLVVPMDGSHWFTMQSVVEKLILRGHEVVVVMPEVSWQLGRSLNCTVKTYSTSYTLEDQDREFMVFADARWTAPLRSAFSLLTSSSNGIFDLFFSNCRSLFNDRKLVEYLKESCFDAVFLDPFDACGLIVAKYFSLPSVVFARGIFCHYLEEGAQCPAPLSYVPRLLLGFSDAMTFKERVWNHIMHLEEHLFCPYFFKNVLEIASEILQTPVTAYDLYSHTSIWLLRTDFVLEYPKPVMPNMIFIGGINCHQGKPVPMEFEAYINASGEHGIVVFSLGSMVSEIPEKKAMAIADALGKIPQTVLWRYTGTRPSNLANNTILVKWLPQNDLLGHPMTRAFITHAGSHGVYESICNGVPMVMMPLFGDQMDNAKRMETKGAGVTLNVLEMTSEDLENALKAVINDKSYKENIMRLSSLHKDRPVEPLDLAVFWVEFVMRHKGAPHLRPAAHDLTWYQYHSLDVIGFLLAVVLTVAFITFKCCAYGYRKCLGKKGRVKKAHKSKTH

production of 4-hydroxypropranolol from propranolol by CYP2D6 in co-expressing enzyme bags (SAN308), against the CYP2D6 control strain SAN300: 2.8 fold
production of 5-hydroxypropranolol from propranolol by CYP2D6 in co-expressing enzyme bags (SAN308), against the CYP2D6 control strain SAN300: 5.8 fold
B3: human UGT1A9 (enzyme)
chain: GKLLVVPMDGSHWFTMRSVVEKLILRGHEVVVVMPEVSWQLGRSLNCTVKTYSTSYTLEDLDREFKAFAHAQWKAQVRSIYSLLMGSYNDIFDLFFSNCRSLFKDKKLVEYLKESSFDAVFLDPFDNCGLIVAKYFSLPSVVFARGILCHYLEEGAQCPAPLSYVPRILLGFSDAMTFKERVRNHIMHLEEHLLCHRFFKNALEIASEILQTPVTEYDLYSHTSIWLLRTDFVLDYPKPVMPNMIFIGGINCHQGKPLPMEFEAYINASGEHGIVVFSLGSMVSEIPEKKAMAIADALGKIPQTVLWRYTGTRPSNLANNTILVKWLPQNDLLGHPMTRAFITHAGSHGVYESICNGVPMVMMPLFGDQMDNAKRMETKGAGVTLNVLEMTSEDLENALKAVINDKSYKENIMRLSSLHKDRPVEPLDLAVFWVEFVMRHKGAPHLRPAAHDLTWYQYHSLDVIGFLLAVVLTVAFITFKCCAYGYRKCLGKKGRVKKAHKSKTH
